Sequences and labels used below:
T1: Botulinum neurotoxin serotype C (BoNT/C) (Clostridium botulinum, UniProt P18640 2-1291)
T1 sequence: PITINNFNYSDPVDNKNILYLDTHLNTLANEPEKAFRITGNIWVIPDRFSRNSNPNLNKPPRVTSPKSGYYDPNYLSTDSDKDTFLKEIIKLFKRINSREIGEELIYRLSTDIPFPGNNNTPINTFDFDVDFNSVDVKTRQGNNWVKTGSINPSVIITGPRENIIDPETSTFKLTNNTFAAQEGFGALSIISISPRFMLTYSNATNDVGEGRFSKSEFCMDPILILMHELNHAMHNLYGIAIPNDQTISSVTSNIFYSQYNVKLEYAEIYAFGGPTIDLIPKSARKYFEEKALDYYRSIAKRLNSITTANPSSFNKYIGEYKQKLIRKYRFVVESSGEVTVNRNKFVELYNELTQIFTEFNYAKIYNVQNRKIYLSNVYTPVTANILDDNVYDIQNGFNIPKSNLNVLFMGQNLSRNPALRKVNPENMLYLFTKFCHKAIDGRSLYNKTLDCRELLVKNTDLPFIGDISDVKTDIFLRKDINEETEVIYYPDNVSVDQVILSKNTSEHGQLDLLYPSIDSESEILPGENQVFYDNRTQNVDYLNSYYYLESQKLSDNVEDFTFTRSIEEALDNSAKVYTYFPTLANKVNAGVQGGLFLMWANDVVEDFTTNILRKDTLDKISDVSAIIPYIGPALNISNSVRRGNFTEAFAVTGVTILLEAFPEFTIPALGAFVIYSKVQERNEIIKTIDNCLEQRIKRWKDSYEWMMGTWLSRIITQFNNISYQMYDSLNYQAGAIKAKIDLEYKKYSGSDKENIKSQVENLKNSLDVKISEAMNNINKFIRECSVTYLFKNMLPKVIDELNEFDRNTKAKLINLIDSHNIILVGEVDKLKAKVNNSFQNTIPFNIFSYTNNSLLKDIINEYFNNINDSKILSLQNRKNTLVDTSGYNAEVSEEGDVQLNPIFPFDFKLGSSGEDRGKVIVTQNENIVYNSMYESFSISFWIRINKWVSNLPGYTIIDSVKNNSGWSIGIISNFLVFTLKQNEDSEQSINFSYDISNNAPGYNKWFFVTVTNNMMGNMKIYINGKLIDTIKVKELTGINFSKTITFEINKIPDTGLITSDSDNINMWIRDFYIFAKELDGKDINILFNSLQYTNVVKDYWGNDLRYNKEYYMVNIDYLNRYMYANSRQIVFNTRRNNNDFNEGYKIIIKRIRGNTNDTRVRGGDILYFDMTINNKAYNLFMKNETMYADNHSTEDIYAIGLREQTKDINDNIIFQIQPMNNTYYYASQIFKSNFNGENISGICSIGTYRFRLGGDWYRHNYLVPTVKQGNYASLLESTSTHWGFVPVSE

B1: 4C10.5 IgG (antibody, V domains shown)
VH: QVQLVQSGGGVVQPGRSLRLSCGASRFTFSGFDMHWVRQAPGKGLEWVARISHDGSMADYADSLRGRFTISRDNSKNTLYLQMNSLRVEDTALYYCAKDRWRSGSYPAFEIWGQGTMVTVSS
VL: EIVLTQSPSFLSAFVGDRITITCRASQGISNRLAWYQQKPGKAPNLLIHPASTLQSGVPSRFSGSGSGTDFTLTISSLQPEDFATYYCQQANSFPLTFGGGTKVEIKR
B2: 4C10.18 IgG (antibody, V domains shown)
VH: B1 VH with V12A
VL: B1 VL with S30G, N92H, S93R
B3: 4C10.22 IgG (antibody, V domains shown)
VH: B1 VH with R26G, T28K, R100P
VL: B1 VL with V15I, H49Y
B4: 4C10.15 IgG (antibody, V domains shown)
VH: B1 VH
VL: B1 VL with Q27K, S30G
B5: 4C10.20 IgG (antibody, V domains shown)
VH: B1 VH with R100P
VL: B1 VL with V15I, S30G, H49Y
B6: 4C10.23 IgG (antibody, V domains shown)
VH: B1 VH with R26G, T28K
VL: B1 VL with Q27K, S30G
B7: 4C10.17 IgG (antibody, V domains shown)
VH: B1 VH
VL: B1 VL with T53S
B8: 4C10.8 IgG (antibody, V domains shown)
VH: B1 VH with R100P
VL: B1 VL with V15I, H49Y

Numbering of substitutions follows the chain as printed.

The first experiment concerns the target T1, Botulinum neurotoxin serotype C (BoNT/C). Kind of experiment: KinExA, IgG.
Consider B1, for which the affinity, expressed as Kd, was 0.0651 nM.

The molecule B2 yielded a Kd of 0.0108 nM.

As to B3, the equilibrium dissociation constant (Kd) was 0.00192 nM. This Kd lies about 5.6-fold lower than the previous one.

B4 showed a Kd of 0.0122 nM.

As for B5, the Kd is 0.00102 nM.

In the case of B6, the Kd is 0.00665 nM. This Kd lies about 6.5-fold higher than the previous one.

Molecule B7 gave a Kd of 0.0325 nM. Compared with the last molecule, the Kd is about 4.9-fold higher.

As to B8, binding was put at a Kd of 0.0035 nM.

For the next experiment, the target named is Botulinum neurotoxin mosaic BoNT/DC (Clostridium botulinum). Kind of experiment: range-finding KinExA, IgG.
Take B1: the equilibrium dissociation constant (Kd) was found to be 0.987 nM. That is a sub-nanomolar value.

Molecule B2 displayed a Kd of 0.109 nM.

For the molecule B3, the Kd amounted to 0.0604 nM.

As for B4, the Kd is 0.112 nM.

Take B5: the equilibrium dissociation constant (Kd) was 0.0166 nM.

Molecule B6 returned a Kd of 0.0904 nM.

In the case of B7, the Kd was 0.766 nM.

For B8, the Kd came to 0.0564 nM.

Another experiment addresses T1, Botulinum neurotoxin serotype C (BoNT/C). The experiment in a line: range-finding KinExA, IgG.
In turn, B1 yielded a Kd of 0.0651 nM.

Take B2: binding was characterised by a dissociation constant (Kd) of 0.0108 nM.

With B3, binding was put at a Kd of 0.00192 nM.

The molecule B4 registered a Kd of 0.0122 nM.

In turn, B5 gave a Kd of 0.00102 nM.

B6 yielded a Kd of 0.00665 nM.

B7 displayed a Kd of 0.0325 nM.

Take B8: the Kd turned out to be 0.0035 nM.

The target in another experiment is Botulinum neurotoxin mosaic BoNT/DC (Clostridium botulinum). The experiment in a line: KinExA, IgG.
Consider B1, for which the Kd stood at 0.987 nM.

The molecule B2 yielded a Kd of 0.109 nM.

On to B3, for which the Kd is 0.0604 nM.

Regarding B4, the Kd was found to be 0.112 nM. This Kd is about 1.9-fold higher than that of the molecule before.

B5: the Kd stood at 0.0166 nM.

In the case of B6, the Kd is 0.0904 nM.

Molecule B7 showed a Kd of 0.766 nM. This Kd is about 8.5-fold higher than that of the molecule before.

The molecule B8 came in with a Kd of 0.0564 nM.
